T1: GFP/p11-1 fusion protein (rat)
T1 construct: Used as COS-7 cell lysate; not shown: GFP reporter at the N end and its junction; vector-encoded C-terminal tail after the XbaI site (reverse primer p11-1-3' has no stop codon)
T1 chain: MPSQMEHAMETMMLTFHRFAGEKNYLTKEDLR

T2: GFP/p11-1A fusion protein (rat, UniProt P05943 1-51)
T2 construct: Used as COS-7 cell lysate; not shown: GFP reporter at the N end and its junction; vector-encoded C-terminal tail after the XbaI site (reverse primer p11-2-1R has no stop codon)
T2 sequence: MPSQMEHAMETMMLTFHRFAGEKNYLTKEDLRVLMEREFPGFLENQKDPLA

B1: GST/Nav1.8 N-terminus fusion protein, designated GST-SNS(I) (other)
chain: MELPFASVGTTNFRRFTPESLAEIEKQIAAHRAAKKARTKHRGQEDKGEKPRPQLDLKDCNQLPKFYGELPAELVGEPLEDLDPFYSTHRTFMVLNKSRTISRFSATWALWLFSPFNLIRRTAIKVS
notes: also called GST/SNS(I) fusion protein; not shown: glutathione-S-transferase (GST) as encoded by vector pGEX-5X-1 (Amersham Pharmacia Biotech); species and limits not stat; vector-encoded residues between GST and the EcoRI site of pGEX-5X-1
B2: GFP-p11 fusion protein (other, not shown: large carriers; small tags and cut ends)
chain: MPSQMEHAMETMMLTFHRFAGEKNYLTKEDLRVLMEREFPGFLENQKDPLAVDKIMKDLDQCRDGKVGFQSFLSLVAGLIIACNDYFVVHMKQKK
notes: Expressed from pBS-GFP/p11 in COS-7 cells and used as cell extract

Tests used:
Experiment in all cases: GST pull-down on glutathione-sepharose beads, anti-GFP immunoblot
GFP/p11-1 fusion protein = molecular target: T1, GFP/p11-1 fusion protein
Protocol: (§1) To examine the binding of p11 to the N-terminus of Naᵥ1.8 in vitro, glutathione-sepharose beads pre-incubated with purified GST, serving as control, or GST-SNS(I) were incubated at 4° C. overnight with GFP-p11 fusion protein or GFP protein extracted from transfected COS cells in PBS. After intensive washing with ice-cold PBS, the bound proteins were denatured in sample buffer (100 mM Tris-HCl pH 6.8, 4% SDS, 0.2% Bromophenol Blue, 20% Glycerol. 200 mM DDT), separated by 10% SDS-PAGE, and transferred to nitrocellulose membrane (Hybond ECL; Amersham Pharmacia Biotech). The membrane was blocked for 1 h in 5% nonfat dry mirnl in PBS-T at room temperature (0.1% Tween-20 in PBS, pH7.4). Primary anti-GFP antibody (Santa Cruz Biotechnology) in 1:800 dilution was applied for 1 hr at room temperature. Secondary antibody (horseradish peroxidase-conjugated sheep anti-mouse IgG, Amersham Pharmacia Biotech) in 1:2000 dilution was applied for 1 hr at room temperature. ECL Western Blotting Detection Reagents (Amersham Pharmacia Biotech) was applied according to the manufacturer's instructions and the blot was exposed to BioMax film (Kodak).
(§2) GFP/p11-1, -2, -3 fusion protein were expressed in COS-7 cells by transient transfection. The COS cell lysates were incubated with affinity-purified GST-SNS(I), the N-terminal domain of Naᵥ1.8 fused to GST, immobilized on glutathione-sepharose beads and were examined by immunoblotting with anti-GFP antibodies.
as §2, with “GFP/p11-1A, p11-2, p11-2-1, and p11-2-2” for “GFP/p11-1, -2, -3”, “proteins” for “protein”, “antibodies. […] These protein fragments correspond to amino acids 1-51, 33-51, 52-77 respectively. GST-SNS(I) efficiently pulled down cell lysate p11-2.” for “antibodies.”

[1] = molecular target: T2, GFP/p11-1A fusion protein
Protocol: as §1, §2
as §2, with “GFP/p11-1A, p11-2, p11-2-1, and p11-2-2” for “GFP/p11-1, -2, -3”, “proteins” for “protein”, “antibodies. […] These protein fragments correspond to amino acids 1-51, 33-51, 52-77 respectively. GST-SNS(I) efficiently pulled down cell lysate p11-2.” for “antibodies.”

GST control protein = molecular target: T3, GST control protein (UniProt P08515 1-218 = GST)
T3 construct: Negative control on glutathione-sepharose beads; also called purified GST
T3 sequence (P08515 whole entry): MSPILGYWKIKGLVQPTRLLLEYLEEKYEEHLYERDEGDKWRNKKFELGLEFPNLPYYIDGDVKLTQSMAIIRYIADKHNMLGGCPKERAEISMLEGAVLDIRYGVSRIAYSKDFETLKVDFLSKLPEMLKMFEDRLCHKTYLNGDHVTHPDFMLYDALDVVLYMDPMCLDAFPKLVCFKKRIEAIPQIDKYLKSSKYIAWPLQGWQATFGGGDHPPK
Protocol: as §1, §2
as §2, with “GFP/p11-1A, p11-2, p11-2-1, and p11-2-2” for “GFP/p11-1, -2, -3”, “proteins” for “protein”, “antibodies. […] These protein fragments correspond to amino acids 1-51, 33-51, 52-77 respectively. GST-SNS(I) efficiently pulled down cell lysate p11-2.” for “antibodies.”

Binder	binding result (GFP/p11-1 fusion protein)	binding result [1]	binding result (GST control protein)
B1	no binding	no binding	
B2			no binding

— patent publication US20040248207A1 (UNIVERSITY COLLEGE LONDON, published 2004)
